No end group written: not given here.
Tests used:
procaspase 1 = target: T1, procaspase 1 (Homo sapiens, UniProt P29466); assay: Co-immunoprecipitation of purified recombinant procaspase 1 with recombinant C/EBPβ peptides; format: binding; details: peptides 200 μM, procaspase 1 0.6 U, quantitated by densitometry
T1 construct: purchased Alexis Biochemicals 201-056
T1 sequence (P29466 1-404): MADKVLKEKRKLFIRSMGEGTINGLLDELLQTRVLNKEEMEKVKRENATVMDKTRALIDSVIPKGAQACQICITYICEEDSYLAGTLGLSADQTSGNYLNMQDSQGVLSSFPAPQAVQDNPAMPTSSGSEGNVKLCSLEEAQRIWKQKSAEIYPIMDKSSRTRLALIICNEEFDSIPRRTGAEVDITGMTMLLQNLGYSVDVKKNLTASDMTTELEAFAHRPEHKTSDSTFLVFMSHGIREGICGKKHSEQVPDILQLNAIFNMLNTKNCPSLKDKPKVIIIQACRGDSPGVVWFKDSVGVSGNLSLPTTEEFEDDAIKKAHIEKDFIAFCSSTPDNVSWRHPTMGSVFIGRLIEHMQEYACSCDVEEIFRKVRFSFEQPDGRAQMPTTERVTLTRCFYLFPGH
Experimental: (§1) FIG. 5 provides results showing the direct association of C/EBPβ-Glu^217 with procaspases 1 and 8. […] Enzyme activity was measured in the absence (control) or presence of C/EBPβ peptides (200 μM) for 2 h, using a procaspases 1 (1U) (not shown) and 8 (0.2 μg) activity assay. Values are presented as the mean±one half the range of duplicates. Panel C provides results for cells cultured on a collagen type I matrix and incubated with the indicated cell permeant, purified synthetic N-acetyl, C-aldehyde C/EBPβ tetra-peptides (10 μM) or with recombinant C/EBPβ-HA peptides as indicated, together with the Chariot reagent (Active Motif) for 4 h. Control cells were incubated without peptides (P<0.05 for all peptides containing Ala^217).
(§2) Purified recombinant C/EBPβ peptides, expressed as known in the art (See, Descombes et al., supra; and Buck et al. (1994), supra), and purified synthetic N-acetyl, C-aldehyde tetrapeptides (200 μM) (American Peptide Company) were assayed for their ability to inhibit the activity of purified human recombinant caspases 1 (catalogue # 201-056) and 8 (catalogue # 201-041-C005) (Alexis Biochemicals). The sequence of caspase 8 includes Ser217 through Asp479 cloned into an expression vector containing a 21 amino acid linker at the N-terminus. Thus, the prodomain (first 220 amino acids) is essentially missing. The fragment is cleaved at Asp385 and the active caspases are essentially identical to those identified in apoptotic cells (Stennicke and Salvesen, Meth. Enzymol., 322:91-100 (1997)). Caspase activity was determined by the release of the p-nitroaniline colorimetric (Alexis Biochemicals) substrate for caspase 1 (catalogue # 260-026) or 8 (catalogue # 260-045) within the linear part of the kinetic assay (Thornberry et al. (1997), supra; Stennicke and Salvesen, supra). Caspase 1 and 8 activity in cells was performed with colorimetric kits (catalogues # 850-211-K and 850-221-K) as described by the manufacturer (Alexis) (See also, Thornberry et al. (1997), supra). The caspase 8 inhibitor IETD was from Calbiochem (Catalogue # 218773).
To delineate the role of C/EBPβ on the activation of procaspases 1 and 8, the self-activation of recombinant procaspases 1 and 8 was induced in vitro (Wilson et al., supra; Margolin et al., supra; and Earnshaw et al., supra), and the effect of purified recombinant C/EBPβ peptides, produced as described previously (Descombes et al., supra; and Buck et al., (1994), supra) on this process was determined. Consistent with the in vivo results described above, C/EBPβ-HA-Glu^217 and C/EBPβ 216-253-HA-Glu^217, but not C/EBPβ-HA-Ala^217, peptides associated with procaspases 1 and 8 (See, FIG. 5, Panel A). […]

hepatic stellate cells = assay: Apoptosis of activated stellate cells transfected with C/EBPβ constructs, annexin-V-PE binding; format: cell-based, mouse; details: for Rescue from induced apoptosis by expressed construct: apoptosis induced by dominant negative MEKK1, IκBα or RSK mutants or by lactacystin; for Effect of expressed construct on apoptosis / survival of stellate cells: transfected cells on collagen type I matrix
From the text: FIG. 1 provides data showing that phosphorylation of C/EBPβ on Thr^217 is required for hepatic stellate cell survival. Panel A provides phosphopeptide maps of in vivo labeled endogenous C/EBPβ in day-4 quiescent and activated primary mouse stellate cells cultured from the time of isolation on EHS or collagen type I matrix, respectively. The arrow indicates the peptide containing Phospho-Thr^217 in activated cells. […] Panel B provides phosphopeptide maps of in vitro labeled C/EPBβ. Active p90RSK phosphorylated C/EPBβ, but not C/EBPβ-Ala^217 on Thr^217 in vitro (arrowheads). Panel C provides results for cells cultured on collagen type I transfected with MSV-C/EBPβ antisense (AS), MSV-C/EBPβ sense (S), or MSV-C/EBPβ-Ala^217 together with CMV-GFP (green fluorescent protein) and p90RSK (1 μg each), as indicated in the Figure. Four hours after transfection, annexin-V-PE binding to plasma membranes was determined. The values presented are the percentage of transfected cells (green) that were annexin-V-PE (+) (red) (P<0.05 for C/EBPβ AS, and C/EBPβ-Ala^217). Panel D provides results for cells transfected as in […] with vectors expressing dominant negative mutants for MEKK1, IκBα, or p90RSK, or treated with the proteasome inhibitor lactacystin (10 μM) (closed bars), and co-transfected with MSV-C/EBPβ-Glu^217 (1 μg each) (open bars) as indicated. Annexin-V-PE binding was determined as described for Panel A (P<0.05 for C/EBPβ-Glu^217). Panel E provides results for cells transfected as described for Panel C, with a dominant-negative p90RSK, treated with FAS (100 nM for 6 hours) or cultured in a serum-free medium for 6 hours (closed bars), and co-transfected with MSV-C/EBPβ-Glu^217 (1 μg each) (open bars), as indicated. Cell death was determined by nuclear staining with Hoechst 33342 (P<0.05 for C/EBPβ-Glu^217 in RSK mut and FAS-treated cells).
FIG. 4 provides results showing that C/EBPβ PThr^217 associates with procaspases 1 and 8, and inhibits their activation. Panel A provides schematic representations of C/EBPβ peptides. The activation (dotted bars), DNA binding (solid bars) and dimerization (hatched bars) domains are shown. […] Panel C provides results showing that C/EBPβ and procaspase 8 were detected in activated stellate cells isolated from C/EBPβ^+/+ mice by confocal microscopy using specific antibodies (Santa Cruz Biotechnology). Control C/EBPβ^−/− stellate cells were negative for C/EBPβ, positive for procaspase 8, and apoptotic. Panel D provides immunoblot results for MSV vectors expressing C/EBPβ-HA (hemagglutinin protein) peptides (0.3 μg) transfected into activated stellate cells. The expressed peptides were immunoprecipitated with anti-HA antibodies. C/EBPβ-PThr^217 was detected using a specific antibody, only in cells expressing wild-type C/EBPβ. […] RSK was associated with all C/EBPβ peptides. Neither C/EBPβ nor procaspases 1 and 8 were detected in C/EBPβ immunoprecipitates from cells expressing C/EBPβ AS. Reciprocal immunoprecipitations of procaspases and RSK confirmed these associations.
Adult male Sprague-Dawley rats and adult male C/EBPβ^+/+ and C/EBPβ^−/− (Screpanti et al., supra; and Buck et al., (1999), supra), C/EBPβ-Ala^217 and C/EBPβ-Asp^105 transgenic mice were used for the isolation of primary hepatic stellate cells (Houglum et al., supra). Primary hepatic stellate cells were isolated by collagenase/pronase perfusion and purified by a single step density Nycodenz gradient (Accurate Chemical & Scientific) as known in the art (See, Lee et al., (1995), supra). Cells were plated on type I collagen matrix (Becton Dickinson) or EHS matrix (Matrigel, Collaborative Biomedical Products). Cells were cultured with 10% fetal calf serum/10% fetal bovine serum and transfected with lipofectamine (GIBCO) for DNA vectors or with the Chariot reagent (Active Motif) for peptides (10 μM) as known in the art (See, Houglum et al., supra; and Morris et al., J. Biol. Chem., 274:24942-24946 (1999)). […]

procaspase 8 = procaspase 8 (Homo sapiens, UniProt Q14790); assay: Co-immunoprecipitation of purified recombinant procaspase 8 with recombinant C/EBPβ peptides; format: binding; set-up: 21 amino acid linker (vector-derived) (N); purchased Alexis Biochemicals 201-041-C005; details: peptides 200 μM, procaspase 8 0.12 μg, quantitated by densitometry
Experimental: as §1
as §2, with “The fragment is cleaved at Asp385 and the active caspases are essentially identical to those identified in apoptotic cells (Stennicke and Salvesen, Meth. Enzymol., 322:91-100 (1997)).” left out, “Caspase 1 and 8 activity in cells was performed with colorimetric kits (catalogues # 850-211-K and 850-221-K) as described by the manufacturer (Alexis) (See also, Thornberry et al. (1997), supra). The caspase 8 inhibitor IETD was from Calbiochem (Catalogue # 218773).” left out
To delineate the role of C/EBPβ on the activation of procaspases 1 and 8, the self-activation of recombinant procaspases 1 and 8 was induced in vitro (Wilson et al., supra; Margolin et al., supra; and Earnshaw et al., supra), and the effect of purified recombinant C/EBPβ peptides, produced as described previously (Descombes et al., supra; and Buck et al., (1994), supra) on this process was determined. […]

Sequence of procaspase 8 (Q14790 217-479): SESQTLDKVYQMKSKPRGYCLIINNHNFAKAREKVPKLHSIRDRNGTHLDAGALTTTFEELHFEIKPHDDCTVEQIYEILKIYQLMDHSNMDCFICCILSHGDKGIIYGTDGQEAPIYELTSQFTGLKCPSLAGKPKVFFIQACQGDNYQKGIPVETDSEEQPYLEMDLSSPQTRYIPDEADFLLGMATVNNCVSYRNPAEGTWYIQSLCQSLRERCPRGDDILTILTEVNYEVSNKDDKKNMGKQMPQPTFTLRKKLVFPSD

Molecule	Co-immunoprecipitation of procaspase 1, fold more than the Ala^217 peptides (procaspase 1)	Rescue from induced apoptosis by expressed construct (hepatic stellate cells)	Co-immunoprecipitation of procaspase 8, fold more than the Ala^217 peptides (procaspase 8) [fold]	Effect of expressed construct on apoptosis / survival of stellate cells (hepatic stellate cells)
C/EBPβ 216-253-Glu^217: C/EBPβ fragment 216-253 with Glu^217, lacking the activation and dimerization domains (KEVDKLSDEYKMRRERNNIAVRKSRDKAKMRNLETQHK; left off: small tags and cut ends)	7 fold	sufficient to rescue cells from apoptosis	12	
C/EBPβ216-253-HA-Glu^217: purified recombinant HA tagged C/EBPβ 216-253 peptide with Glu^217 (KEVDKLSDEYKMRRERNNIAVRKSRDKAKMRNLETQHK; also: HA tag (place not given here))	about 7 fold		~12	
C/EBPβ 216-253-Ala^217: C/EBPβ fragment 216-253 with Ala^217, lacking the activation and dimerization domains (KAVDKLSDEYKMRRERNNIAVRKSRDKAKMRNLETQHK; left off: small tags and cut ends)				induced apoptosis
rC/EBPβ-Ala^105: modified rat C/EBPβ with mutation of Ser^105 to Ala (SEQ ID NO:14), nonphosphorylatable mutant (protein, listed as Rattus norvegicus) MHRLLAWDAACLPPPPAAFRPMEVANFYYEPDCLAYGAKAARAAPRAPAAEPAIGEHERAIDFSPYLEPLAPAAADFAAPAPAHHDFLSDLFADDYGAKPSKKPADYGYVSLGRAGAKAAPPACFPPPPPAALKAEPGFEPADCKRADDAPAMAAGFPFALRAYLGYQATPSGSSGSLSTSSSSSPPGTPSPADAKAAPAACFAGPPAAPAKAKAKKAVDKLSDEYKMRRERNNIAVRKSRDKAKMRNLETQHKVLELTAENERLQKKVEQLSRELSTLRNLFKQLPEPLLASAGHC				induced apoptosis
rC/EBPβ-Asp^105: modified rat C/EBPβ with mutation of Ser^105 to aspartic acid (SEQ ID NO:15), phosphorylation mimic (protein, listed as Rattus norvegicus) MHRLLAWDAACLPPPPAAFRPMEVANFYYEPDCLAYGAKAARAAPRAPAAEPAIGEHERAIDFSPYLEPLAPAAADFAAPAPAHHDFLSDLFADDYGAKPSKKPDDYGYVSLGRAGAKAAPPACFPPPPPAALKAEPGFEPADCKRADDAPAMAAGFPFALRAYLGYQATPSGSSGSLSTSSSSSPPGTPSPADAKAAPAACFAGPPAAPAKAKAKKAVDKLSDEYKMRRERNNIAVRKSRDKAKMRNLETQHKVLELTAENERLQKKVEQLSRELSTLRNLFKQLPEPLLASAGHC		rescued		
C/EBPβ-HA-Glu^217: purified recombinant HA (hemagglutinin) tagged C/EBPβ-Glu^217 peptide (protein, left off: small tags and cut ends, purified recombinant HA (hemagglutinin) tagged C/EBPβ-Glu^217 peptide) MHRLLAWDAACLPPPPAAFRPMEVANFYYEPDCLAYGAKAARAAPRAPAAEPAIGEHERAIDFSPYLEPLAPAADFAAPAPAHHDFLSDLFADDYGAKPSKKPADYGYVSLGRAGAKAAPPACFPPPPPAALKAEPGFEPADCKRADDAPAMAAGFPFALRAYLGYQATPSGSSGSLSTSSSSSPPGTPSPADAKAAPAACFAGPPAAPAKAKAKKEVDKLSDEYKMRRERNNIAVRKSRDKAKMRNLETQHKVLELTAENERLQKKVEQLSRELSTLRNLFKQLPEPLLASAGHC	about 7 fold			

Source: patent US8129349B2, “Treatment of disease by inducing cell apoptosis” (The Regents of the University of California, priority 2000, dated 2012)
